Results taken from patent US20240035031A1.

Target: PYL1-MS2 (MS2 binding protein fused to PYL1 via a glycine-serine linker) (UniProt Q8VZS8)
Assay: cell-based or functional assay

GFP+ cells by flow cytometry (split GFP trans-splicing reporter) in the presence of 1.5 mM ABA (% of cells GFP+): > 40
Substance: dPspCas13b-ABI1 (catalytically inactive Prevotella sp. Cas13b fused to the abscisic acid-binding protein ABI1 via a glycine-serine linker) (from UniProt P49597 126-423)
